Results from PMC11669160, “Engineering an αCD206-synNotch Receptor: Insights into the Development of Novel Synthetic Receptors” (ACS Synthetic Biology, 2024).

Target: T1, mouse CD206 extracellular domain fused to a myc tag and the PDGFRβ transmembrane domain, displayed on MetBo2 … (Mus musculus (cDNA of IL-4 treated …))
T1 construct: transmembrane domain of the human platelet-derived growth factor receptor (PDGFRβ); the methods name only myc; also called CD206 ECD; CD206 ECD construct; source: MetBo2 cells, transiently transfected (CMV promoter), on cells
T1 chain: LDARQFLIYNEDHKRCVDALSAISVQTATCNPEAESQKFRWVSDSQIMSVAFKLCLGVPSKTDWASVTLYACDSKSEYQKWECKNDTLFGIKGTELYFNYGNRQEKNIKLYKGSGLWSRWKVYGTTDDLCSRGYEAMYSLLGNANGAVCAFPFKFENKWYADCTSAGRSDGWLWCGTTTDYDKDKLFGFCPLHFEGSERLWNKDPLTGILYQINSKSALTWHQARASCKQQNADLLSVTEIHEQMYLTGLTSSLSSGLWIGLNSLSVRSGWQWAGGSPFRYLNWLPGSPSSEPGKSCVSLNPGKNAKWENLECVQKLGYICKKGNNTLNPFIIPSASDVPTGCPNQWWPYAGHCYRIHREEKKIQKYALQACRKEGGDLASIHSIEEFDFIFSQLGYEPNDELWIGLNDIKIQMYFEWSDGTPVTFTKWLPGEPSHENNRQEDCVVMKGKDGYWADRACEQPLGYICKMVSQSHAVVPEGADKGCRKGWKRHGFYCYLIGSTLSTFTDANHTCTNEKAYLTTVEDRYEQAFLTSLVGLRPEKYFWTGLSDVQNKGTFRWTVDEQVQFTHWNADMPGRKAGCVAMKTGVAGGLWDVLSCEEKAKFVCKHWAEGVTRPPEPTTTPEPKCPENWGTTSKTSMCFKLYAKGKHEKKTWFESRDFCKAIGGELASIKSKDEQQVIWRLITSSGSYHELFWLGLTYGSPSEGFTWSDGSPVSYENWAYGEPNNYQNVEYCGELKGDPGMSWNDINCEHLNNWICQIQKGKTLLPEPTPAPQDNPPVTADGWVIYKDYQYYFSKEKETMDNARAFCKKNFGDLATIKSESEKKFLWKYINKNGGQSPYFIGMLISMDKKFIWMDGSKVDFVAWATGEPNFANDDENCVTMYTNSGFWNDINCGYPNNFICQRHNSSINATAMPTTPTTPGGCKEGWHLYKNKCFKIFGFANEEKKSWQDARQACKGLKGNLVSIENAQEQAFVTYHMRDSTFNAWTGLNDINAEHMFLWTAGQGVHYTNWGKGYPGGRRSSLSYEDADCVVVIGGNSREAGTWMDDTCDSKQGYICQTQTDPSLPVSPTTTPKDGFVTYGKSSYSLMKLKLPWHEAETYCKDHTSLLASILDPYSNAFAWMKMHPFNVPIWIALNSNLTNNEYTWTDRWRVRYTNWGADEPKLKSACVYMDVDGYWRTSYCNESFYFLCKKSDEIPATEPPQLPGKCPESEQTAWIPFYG
Test: immunostaining of cells or tissue; supernatant of HEK293FT cells with αCD206-mNeonGreen chromobody put on MetBo2 cells transiently expressing the CD206 ECD construct; 4 °C overnight in the dark; fluorescence microscopy (methods: fixed cells; legend: live cells)
Conditions: partners not purified

B1: αCD206-mNeonGreen chromobody (αCD206 VHH fused to mNeonGreen) (VHH)
VHH: QVQLQESGGGLVQPGGSLRLSCAASGNIFSINAIGWYRQAPGKQRELVATITLSGSTNYADSVKGRFSISRDNAKNTVYLQMNSLKPEDTAVYYCNANTYSDSDVYGYWGQGTQVTVSS
notes: also called αCD206 chromobodies; αCD206 nanobody; source: HEK293FT, transiently transfected; cell-free culture supernatant used unpurified
binding result: binds
